Data: patent US20230235059A1 (SORRENTO THERAPEUTICS, published 2023)

Key:
[1] = target: PD-1 in the Promega PD1/PD-L1 blockade reporter bioassay (Cat. No. J1250) (human, UniProt Q15116 25-288); test: cell-based or functional assay
[2] = target: T1, Recombinant cynomolgus monkey PD-1-His (Sino Biological catalog #90311-C08H) (cynomolgus monkey, UniProt Q15116 25-167 (human entry)); test: SPR (BIACORE), antibody captured on anti-human Fc, PD-1-His as analyte
T1 construct: Bought protein; also called cyno PD-1-His; cynomolgus monkey PD-1 antigen; not shown: His tag
T1 chain: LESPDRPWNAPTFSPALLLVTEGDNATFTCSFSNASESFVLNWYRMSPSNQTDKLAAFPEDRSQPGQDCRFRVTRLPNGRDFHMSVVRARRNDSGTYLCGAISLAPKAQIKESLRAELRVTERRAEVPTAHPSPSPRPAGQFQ
Experimental: (§1) Binding kinetics of anti-PD1 antibodies with PD-1 proteins from different species was measured using surface plasmon resonance (SPR). […] The PD-1 proteins from human (catalog #10377-H08H-B), cynomolgus monkey (catalog #90311-C08H), rhesus monkey (catalog #90305-K08H), and mouse (catalog #50124-M08H) were obtained from Sino Biological. Anti-human fragment crystallizable region (Fc region) antibody was immobilized on a CMS sensor chip to approximately 8,000 RU using standard N-hydroxysuccinimide/N-Ethyl-N′-(3-dimethylaminopropyl) carbodiimide hydrochloride (NHS/EDC) coupling methodology. […] Recombinant human, cyno, rhesus and mouse PD-1-His were serially diluted in a running buffer of 0.01 M HEPES pH 7.4, 0.15 M NaCl, 3 mM EDTA, 0.05% v/v Surfactant P20 (HBS-EP+). All measurements were conducted in HBS-EP+ buffer with a flow rate of 30 μL/minute. A 1:1 (Langmuir) binding model was used to fit the data. All BIACORE assays were performed at room temperature.

[3] = target: T2, Recombinant rhesus monkey PD-1-His (Sino Biological catalog #90305-K08H) (rhesus monkey); test: as above
T2 construct: Bought protein; also called rhesus PD-1-His; rhesus monkey PD-1 antigen; not shown: His tag
T2 chain: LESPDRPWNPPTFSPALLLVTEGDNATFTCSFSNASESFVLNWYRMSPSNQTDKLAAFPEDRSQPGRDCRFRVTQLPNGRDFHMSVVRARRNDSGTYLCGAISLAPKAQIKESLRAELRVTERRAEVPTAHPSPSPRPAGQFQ
Experimental: as §1

[4] = target: T3, Recombinant mouse PD-1-His (Sino Biological catalog #50124-M08H) (mouse, UniProt Q02242 25-167); test: as above
T3 construct: Bought protein; also called mouse PD-1 antigen; not shown: His tag
T3 sequence: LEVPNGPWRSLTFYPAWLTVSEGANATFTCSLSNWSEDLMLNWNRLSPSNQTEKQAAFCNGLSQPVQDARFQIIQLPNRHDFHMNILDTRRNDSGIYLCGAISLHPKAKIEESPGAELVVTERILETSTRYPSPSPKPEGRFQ
Experimental: as §1

Sequence of PD-1 in the Promega PD1/PD-L1 blockade reporter bioassay (Cat. No. J1250) (Q15116 25-288 limits assumed): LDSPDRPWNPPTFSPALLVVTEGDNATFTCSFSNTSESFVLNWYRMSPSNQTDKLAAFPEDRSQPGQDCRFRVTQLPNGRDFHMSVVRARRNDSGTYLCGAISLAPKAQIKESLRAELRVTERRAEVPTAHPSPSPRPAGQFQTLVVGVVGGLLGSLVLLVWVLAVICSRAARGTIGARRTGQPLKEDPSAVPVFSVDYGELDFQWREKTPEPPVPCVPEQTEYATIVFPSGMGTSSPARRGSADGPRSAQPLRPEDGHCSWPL

EC50 of fold induction of Relative Light Units (RLU), PD1/PD-L1 blockade reporter bioassay [1]: 0.493 µg/mL | binding result [2]: binds | binding result [3]: binds | binding result [4]: binds
B1: HPD-BB9 (antibody, V domains shown)
VH: QVQLVQSGAEVKKPGASVKVSCKASGFRLTTNGISWVRQAPGQGLEWMGWISAGGGPTNYAQKLQGRVTMTTDTSTSTAYMELRSLRSDDTAVYYCAKGLYGTKDAWGQGTLVTVSS
VL: QSVLTQPPSVSEVPGQRVTISCSGGGSNIGSNAVNWYQHFPGKAPKLLIYYNDLLPSGVSDRFSASKSGTSASLAISGLRSEDEADYYCAAWDDNLSAYVFATGTKVTVL
notes: also called HDP-BB9; anti-PD1 clone HPD-BB9
